According to US5621078:

Biological target: epidermal growth factor receptor (Homo sapiens (Human)) (UniProt P00533)

TGF-alpha - PE40 AB (ligand)
A431 CELL KILLING EC50 pM: 47 pM
